From paper PMC3741272, “Identification and Characterization of a Novel aac(6′)-Iag Associated with the bla IMP-1–Integron in a Multidrug-Resistant Pseudomonas aeruginosa” (PLoS ONE, 2013)

Key:
Experiment in all cases: purified protein
Assay type in all cases: biochemical, Pseudomonas aeruginosa
Conditions in all cases: 200 µM acetyl-CoA, 2 mM DTNB, 50 mM phosphate pH 7.0, 37°C
[1] = tested on: CN[C@@H]1[C@@H](O)[C@@H](O[C@@H]2[C@@H](O)[C@H](O[C@H]3OC(CN)=CC[C@H]3N)[C@@H](N)C[C@H]2N)OC[C@]1(C)O
[2] = tested on: CN[C@@H]1[C@@H](O)[C@@H](O[C@@H]2[C@@H](O)[C@H](O[C@H]3O[C@H](CN)[C@@H](O)[C@H](O)[C@H]3O)[C@@H](N)C[C@H]2NC(=O)[C@@H](O)CN)OC[C@]1(C)O
[3] = tested on: NCC[C@H](O)C(=O)N[C@@H]1C[C@H](N)[C@@H](O[C@H]2O[C@H](CN)CC[C@H]2N)[C@H](O)[C@H]1O[C@H]1O[C@H](CO)[C@@H](O)[C@H](N)[C@H]1O
[4] = tested on: NCC[C@H](O)C(=O)N[C@@H]1C[C@H](N)[C@@H](O[C@H]2O[C@H](CN)[C@@H](O)[C@H](O)[C@H]2O)[C@H](O)[C@H]1O[C@H]1O[C@H](CO)[C@@H](O)[C@H](N)[C@H]1O
[5] = tested on: NC[C@@H]1CC[C@@H](N)[C@@H](O[C@H]2[C@H](O)[C@@H](O[C@H]3O[C@H](CO)[C@@H](O)[C@H](N)[C@H]3O)[C@H](N)C[C@@H]2N)O1
[6] = tested on: NC[C@H]1O[C@H](O[C@H]2[C@H](O)[C@@H](O[C@H]3O[C@H](CO)[C@@H](O)[C@H](N)[C@H]3O)[C@H](N)C[C@@H]2N)[C@H](N)C[C@@H]1O
[7] = tested on: NC[C@H]1O[C@H](O[C@H]2[C@H](O)[C@@H](O[C@H]3O[C@H](CO)[C@@H](O)[C@H](N)[C@H]3O)[C@H](N)C[C@@H]2N)[C@H](O)[C@@H](O)[C@@H]1O

AAC(6′)-Iag (Pseudomonas aeruginosa)
Km [1]: 8.81 ± 1.2 µM | kcat [1]: 0.745 ± 0.08 s⁻¹ | kcat/Km [1]: 85000 M⁻¹ s⁻¹ | Km [2]: 209 ± 88 µM | kcat [2]: 0.10 ± 0.03 s⁻¹ | kcat/Km [2]: 520 M⁻¹ s⁻¹ | Km [3]: 9.9 ± 1.2 µM | kcat [3]: 0.79 ± 0.07 s⁻¹ | kcat/Km [3]: 80000 M⁻¹ s⁻¹ | Km [4]: 189 ± 108 µM | kcat [4]: 0.11 ± 0.03 s⁻¹ | kcat/Km [4]: 780 M⁻¹ s⁻¹ | Km [5]: 3.03 ± 0.64 µM | kcat [5]: 0.194 ± 0.02 s⁻¹ | kcat/Km [5]: 64000 M⁻¹ s⁻¹ | Km [6]: 3.27 ± 0.76 µM | kcat [6]: 0.15 ± 0.03 s⁻¹ | kcat/Km [6]: 46000 M⁻¹ s⁻¹ | Km [7]: 52.1 ± 16 µM | kcat [7]: 0.29 ± 0.06 s⁻¹ | kcat/Km [7]: 5600 M⁻¹ s⁻¹
